In this data set the target is Rad24-RFC clamp loader;9-1-1 clamp (Ddc1-Mec3-Rad17) (Saccharomyces cerevisiae;Saccharomyces …, UniProt P32641;P40348;P38629;P40339;P38251;Q08949;Q02574;P48581 …, |). Kind of data set: cryo-EM structure; closed 9-1-1 state; 0.5 mM ATPgS, 5 mM Mg acetate; 4 ATPgS and 1 ADP bound; 3.2 A; 1.8 uM Rad24-RFC, 2.2 uM 9-1-1, 2.7 uM DNA, 0.5 mM ATPgS, 5 mM Mg acetate; 9-1-1 + DNA 10 min at 30 C, then with loader on ice water 30 min (double-tailed) or 3.

B1: double-tailed DNA (3'- and 5'-recessed ends) (dsDNA)
DNA 1: GCAGACACTACGAGTACATA
DNA 2: TTTTTTTTTTTATGTACTCGTAGTGTCTGCTTTTTTTTTT
modifications: 5'-OH
As to B1, the binding result is given as “binds”.
